Results on one substance are retold here after paper PMC9290431.

Values joined by “and” are separate entries in the source; they are usually repeats but may differ in a detail not shown here. Identical values can stand only once. Like-named read-outs stand apart in the source and are kept apart here.

Experiment [1] has as its target TDP-43 NTD-NLS (human). As to the kind of experiment: AUC.
In experiment [2] the target is TDP-43 NTD-NLS (human). As to the kind of experiment: AUC. This is another data set of the same source.

In general, stoichiometry N refers to the number of molecules, sites or subunits per partner or assembly. For the substance TDP-43 NTD-NLS (domain or fragment), the stoichiometry N in experiment [1] is 2 and 4; in experiment [2], 8.
